Reference: paper PMC3979375 (2014)

Assays:
[1] = target: T1, GST-SH3-GUK, fusion protein of GST and the combined SH3-GUK domain of SAP102 (Rattus norvegicus (Rat), UniProt Q62936); experiment: GST pulldown / amylose pulldown
T1 chain: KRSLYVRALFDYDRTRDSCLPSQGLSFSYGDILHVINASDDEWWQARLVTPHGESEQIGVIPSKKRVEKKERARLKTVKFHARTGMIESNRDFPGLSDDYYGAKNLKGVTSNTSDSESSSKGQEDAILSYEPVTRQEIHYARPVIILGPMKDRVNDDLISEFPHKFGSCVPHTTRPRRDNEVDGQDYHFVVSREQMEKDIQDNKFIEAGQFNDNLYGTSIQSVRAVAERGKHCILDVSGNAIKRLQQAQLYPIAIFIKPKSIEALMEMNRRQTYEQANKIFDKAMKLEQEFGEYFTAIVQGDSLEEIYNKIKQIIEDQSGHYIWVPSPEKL

[2] = target: T2, GST-SH3, fusion protein of GST and the SH3 domain of SAP102 (Rattus norvegicus (Rat), UniProt Q62936); experiment: GST pulldown / amylose pulldown
T2 chain: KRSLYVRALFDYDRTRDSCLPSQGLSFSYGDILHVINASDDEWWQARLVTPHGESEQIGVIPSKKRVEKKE

[3] = target: T3, GST-GUK, fusion protein of GST and the GUK domain of SAP102 (Rattus norvegicus (Rat), UniProt Q62936); experiment: GST pulldown
T3 chain: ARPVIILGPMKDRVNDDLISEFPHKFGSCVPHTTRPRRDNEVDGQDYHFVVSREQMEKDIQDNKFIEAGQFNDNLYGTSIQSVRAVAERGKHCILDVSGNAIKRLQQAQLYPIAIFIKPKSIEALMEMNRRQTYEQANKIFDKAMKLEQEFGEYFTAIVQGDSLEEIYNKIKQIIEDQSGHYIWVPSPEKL

binding result [1]: binds
binding result [2]: binds
binding result [3]: binds
B1: MBP-A2A-CT, fusion protein comprising maltose-binding protein and the carboxyl terminus of the A2A receptor (protein)
chain: RIREFRQTFRKIIRSHVLRQQEPFKAAGTSARVLAAHGSDGEQVSLRLNGHPPGVWANGSAPHPERRPNGYALGLVSGGSAQESQGNTGLPDVELLSHELKGVCPEPPGLDDPLAQDGAGVS
